This is an account of results in patent US10369195B2, “Methods and compositions for preventing and treating damage to the heart” (MandalMed, Inc., priority 2016, dated 2019).

“Also recorded” adds a separate entry of the source.

Experiment [1] deals with rat ischemia-reperfusion model of MI. The experiment in a line: Serial echocardiography (ejection fraction, ESV, EDV) after ischemia-reperfusion MI. The format is in vivo. As for the experimental part: Animal experiments to test the therapeutic potential of Gal-3C in the preservation of post-MI cardiac function were performed using surgical induction of MI in rodents and functional evaluation of treatment as previously described (61-66). To most accurately model cardiac damage experienced by MI patients, a well-established ischemia-reperfusion procedure was used in which the left anterior descending coronary artery (LAD) of rats was occluded for 25 min followed by restoration of blood flow (67). This standard MI model is more clinically relevant than permanent LAD ligation models because the reperfusion experienced after post-MI angioplasty not only limits the size of the infarct, but paradoxically introduces free radical damage, and is well validated as a model for post-MI heart failure experimental therapies (68).
Experiments were performed according to the UCSF guidelines for rodent survival surgery and the Guide for the Care and Use of Laboratory Animals of the US National Institutes of Health. Male Sprague-Dawley rats (age 10-12 weeks) were anesthetized with isoflurane (2%), received analgesics (buprenorphine (0.1 mg/kg), subcutaneous injection) pre- and post-operation, and underwent ischemia-reperfusion MI involving temporary (25 minutes) occlusion of the left anterior descending coronary artery (LAD) to produce regional moderate myocardial ischemia.
Briefly, rats were ventilated to a small animal volume-controlled ventilator (Harvard Rodent Ventilator, Model 683, South Natick, Mass.), and the heart was exposed via thoracotomy. Occlusion proceeds with a 7-0 nonabsorbable surgical suture passed under the LAD 2-3 mm from tip of the normally positioned left auricle and tied around a 1-mm section of PE-50 tubing, tightening with an artery clamp to temporarily occlude the LAD. After occlusion for 25 minutes, reperfusion was allowed to the formerly ischemic bed. The chest was then closed with removal of excess fluid and air from the chest cavity. All animals were monitored post-operation until they became ambulatory. The mortality during MI procedure was 12%.
The highest dose, 600 μg/rat/day, and the lowest dose, 200 μg/rat/day, were chosen for continued study, representing approximately 2- and 5.5-fold higher doses based on body surface area of rats than was used in the multiple myeloma study of Gal-3C in mice (70). Groups of rats (n=10) were treated with low (200 μg/day) and high (600 μg/day doses of Gal-3C or with PBS-lactose (vehicle control) administered over 0-6 days post-MI (“early window”; primed pumps were implanted several minutes before the MI procedure on day 0). These groups were designed to be sufficiently powered to detect potentially statistically significant improvement from Gal-3C treatment.
Pre-filled and primed mini-osmotic pumps were implanted a few minutes before surgical induction of MI and Gal-3C treatment continued for 7 days (denoted as “early window”) as in the pilot study described above. The effect of treatment on cardiac function was evaluated by serial echocardiography on day 0 pre-MI, 2 and 28 days post-MI, and LV pressure measurement at 28 days. For the early window, groups consisted of sham surgery with PBS, sham with 600 μg/day Gal-3C, MI with PBS, MI with 200 μg/day Gal-3C, and MI with 600 μg/day Gal-3C.
In a subsequent experiment, the high dose Gal-3C and the PBS control were administered by Alzet pump over a delayed delivery window of from 4 days until 10 days post-MI (denoted as “delayed window”) to rats that had been subjected to the same ischemia-reperfusion procedure as described in Example 2 above. Delayed treatment might better enable fibrotic repair of the infarct while preventing wall rupture. […]

Experiment [2] shares this test system. Nature of the experiment: Infarct size from Masson's trichrome-stained heart sections (volumetric, % area scarred). The format is in vivo. Particulars: 600 μg/day. From the text:
After rats in the delayed treatment study were euthanized, hearts were harvested and sectioned for Masson's trichrome and Sirius red staining with quantitative image analysis to assess remodeling. Rather than using an optimized approach for infarct size measurement in permanent ligation rat models (64), it was confirmed that in the ischemia-reperfusion MI model, a volumetric infarct sizing approach (i.e., % area in the tissue sections that was scarred) would be more accurate. Using this approach for analysis of Masson's trichrome staining, it was shown that the infarct size was considerably (>2-fold) reduced in Gal-3C-treated (600 μg/day) rats, a difference that achieved significance with Gal-3C treatment in the delayed window (FIG. 8A).
As described in Example 3 above, rats were euthanized at 8 weeks post-MI, hearts were harvested and sectioned for Masson's trichrome and Sirius red staining with quantitative image analysis using a volumetric infarct sizing approach (i.e., % area in the tissue sections that was scarred) for analysis of Masson's trichrome staining to calculate the size of the primary infarct.

Experiment [3] relates to Primary human cardiac fibroblasts. The experiment in a line: TGFβ1-induced differentiation of primary cardiac fibroblasts to myofibroblasts (immunoblots of SMA and tensin 1). The format is cell-based. As for the experimental part: Galectin-3 was purified on lactosyl-sepharose from recombinant E. coli pelleted from 40 L of culture, collagenase digested, and then Gal-3C was isolated on lactosyl sepharose as previously described (41). Primary human cardiac fibroblasts (Cell Applications, San Diego, Calif.) were purchased and cultured as per the vendor's recommendations. 200,000 cells at passage 2-3 were cultured in 6-well plates until confluent, starved for 48 h and then induced to differentiate to myofibroblasts by treatment with […] TGFβ1 for 48-72 h. Varying concentrations of Gal-3C were also incubated with the cells. The cells were harvested, lysates prepared, and total protein quantified with a BCA assay (Pierce/Thermo). A total of […] protein was analyzed per condition by immunoblots using primary Abs against smooth muscle actin (SMA) and tensin 1 (Sigma-Aldrich).
(A western blot detects proteins with antibodies after separation by electrophoresis.)

The mark [4] stands for this setting: Gal-3C 600 μg/day days 4-10 vs losartan 8 mg/kg/day 56 days, 15/group.
[5] abbreviates: delayed window (4-10 days post-MI), 600 μg/day, 28 days post-MI, vs vehicle.
[6] abbreviates: delayed window Gal-3C, 8 weeks (day 56) post-MI, expanded groups 15/group (FIG. 12).
[7] abbreviates: delayed window, 600 μg/day, 8 weeks (day 56) post-MI, vs vehicle, n=12/group.
Where [8] appears, read: early window (0-6 days post-MI), 200 and 600 μg/day, 28 days post-MI, vs PBS.
Setting [9] is: TGFβ1 5 or 15 mg/ml for 48-72 h, varying concentrations of Gal-3C.

B1: Gal-3C: N-terminally truncated form of full length galectin-3, lacking the amino-terminal domain but retaining carbohydrate binding ability; 143 carboxy-terminal residues, SEQ ID NO: 3 (protein)
chain: GAPAGPLIVPYNLPLPGGVVPRMLITILGTVKPNANRIALDFQRGNDVAFHFNPRFNENNRRVIVCNTKLDNNWGREERQSVFPFESGKPFKIQVLVEPDHFKVAVNDAHLLQYNHRVKKLNEISKLGISGDIDITSASYTMI
Take B1: in experiment [1] (setting [4]), the “EF, benefit relative to losartan” value is “statistically significant benefit” and the “ESV, benefit relative to losartan” value is recorded as “statistically significant benefit”. In experiment [1] (setting [5]), the ESV result was “significant benefit; also recorded: statistically significant improvements”, the “LV EDV” value is “no benefit” and the LV ejection fraction entry was “significant benefit; also recorded: statistically significant improvements”. In addition, in experiment [1] (setting [6]), the EDV entry was “beneficial effect” and the ESV result is recorded as “beneficial effect”. For the same molecule, in experiment [1] (delayed window, 600 μg/day), the “ejection fraction at 8 weeks compared to 4 weeks in treated animals” value is “trend but not a statistically significant increase”. In experiment [1] (setting [7]), the EDV entry is listed as “significant benefit”, the ESV result is recorded as “beneficial effect” and the ejection fraction result is recorded as “beneficial effect”. In addition, in experiment [1] (setting [8]), the “LV end diastolic volume (EDV)” value was “no benefit”, the “end systolic volume (ESV)” value is “profound benefit” and the “left ventricular ejection fraction” value was “profound benefit”. Moreover, the “cardiac function by echocardiography (ejection fraction, ESV, EDV)” value in experiment [1] (early window treatment, 2 days post-MI) was “no benefit observed”. Also, the “EF, benefit relative to PBS” value in experiment [1] (out to 8 weeks post-MI, Gal-3C 600 μg/day days 4-10, losartan 8 mg/kg/day in drinking water 56 days, 15/group) is “statistically significant benefit”. In addition, the “reduction of infarct size” value in experiment [2] (28 days post-MI, significant in the delayed window) is reported as above 2 fold. The “infarct size vs PBS group” value in experiment [2] (delayed window, 8 weeks post-MI) is listed as “significantly smaller”. In experiment [3] (Gal-3C 4-20 μg/ml, TGF1β 15 μg/ml), the “differentiation to myofibroblasts induced by TGF1β (decreased expression of tensin-1 and SMA)” value is given as “inhibited the differentiation to myofibroblasts”. Further, in experiment [3] (setting [9]), the “expression of SMA (smooth muscle actin), immunoblot” value was “inhibited expression” and the “expression of tensin 1, immunoblot” value is on record as “inhibited expression”.
